Assay results taken from patent publication US20160235814A1.

Biological target: human IgG (coated on 96-well plates to form immune complexes, IC) (human)
Assay: cell-based or functional assay

Substance: Human sCD32 (SM101), recombinant soluble human FcγRIIB (from UniProt P31994 46-221) (receptor)
- ROS production by IC-activated human neutrophils (scale: % reduction of ROS production at 0.01 mg/ml sCD32): 30
- ROS production by IC-activated human neutrophils (scale: % reduction of ROS production at 0.1 mg/ml sCD32): 65
- ROS production by IC-activated human neutrophils (scale: % reduction of ROS production at 0.5 mg/ml sCD32): 75
